For 134 substances, amyloid nucleation score results are on record in the supplement of paper PMC12042874.

± gives the uncertainty stated by the source.

The data set is described as follows: amyloid nucleation score (Sup35N fusion, yeast selection) (log enrichment); library NNK3; higher = more nucleation; inactive = no reads after selection. In a few lines: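 Output and input plasmid inserts were sequenced by Illumina after psi-negative yeast carrying Sup35N fused to peptides of 20 random codons had been induced 24 hours with 100 μM copper sulfate and grown 7 days at 30°C on medium lacking adenine and uracil. The nucleation score is the DiMSum log enrichment of output over input reads, centred on the mode score of non-aggregating sequences. Sequences with under 100 input reads were excluded.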
On to FSVIMFMNLRAQFASMDRGG, for which the amyloid nucleation score was 1.59 ± 0.12.
With LQRPASEFSERGA the entry was “inactive”.
With TLDINMNLRSLYVGQHYADI the entry was “inactive”; with IEFRLWYG, “inactive”.
With YSGTKY the entry was “inactive”; with STHFRCELQRICF, “inactive”; with KSIIYTILLVWFKYGVHSPL, “inactive”.
ASWFYNIKKLNCCHFVQFAD registered an amyloid nucleation score of 1.64 ± 0.09.
With TVGGFAWLDNSLSDRMFDTS the entry was “inactive”; with SVIMFINRIPGSNPL, “inactive”.
With HIVLVSRLHITAGGRF the figure was -0.179 ± 0.65; with IRFVLYISGILSCWFNRWNN, “inactive”; with TCISFYETVAL, “inactive”.
With SIQYIYFDASQMRIENSRSL the figure was 2.37 ± 0.059.
For STSVVELVNLVDDLRLNLSR, the amyloid nucleation score entry is “inactive”.
With SILMMGNLFKLLRKF the entry was “inactive”.
With NYPIA the entry was “inactive”; with FAHVI, “inactive”.
The result for NYRERS reads “inactive”; that for NWTYTAENPG, “inactive”; that for SKKSRSLNWFLLVNRTPDAG, “inactive”.
For ERLFRFENEDLVIFIYCSIL, the amyloid nucleation score result is “inactive”.
With NALCSHTILLYGEVMLKSWL the entry was “inactive”.
The result for IGSFVKDKLSRRIGTGRMEI reads “inactive”; that for VKVMMT, “inactive”; that for QIQGAGHGM, 0.534 ± 0.21.
The result for MGVSADTYYNIRM reads 0.161 ± 0.43; that for LVPFSNGCQSGPLTLIWYVA, 2.04 ± 0.068; that for TRFLCSGV, “inactive”.
For GDKISANACSMNFFDMFW, the amyloid nucleation score entry is “inactive”.
With VMDIVHPSSDAVVGRA the figure was -0.125 ± 0.53.
The result for VYWFKELADSITRCVKNYIY reads “inactive”; that for YYSGVFPNVVGRS, “inactive”; that for YWQHWWL, “inactive”.
With MRARLANKQGMGPRTRVASV, the amyloid nucleation score entry was “inactive”.
On to LLAGYPLWKPKTCQYMKPWL, for which the amyloid nucleation score turned out to be 0.125 ± 0.24.
The result for YLKGTMSDSKNGPYDRGKLT reads “inactive”; that for DNLWRVRLRCKAFSLYVLNR, “inactive”; that for SLLSEMSTR, “inactive”.
Regarding HGDVCMNMGYNRT, the amyloid nucleation score entry was “inactive”.
The result for CDLWIHWS reads “inactive”; that for DAIPARVYYGCQFILCRNDL, 2.85 ± 0.084.
With EFMKGFAWISMFNLRSVLNS the entry was “inactive”; with AWWMLN, “inactive”.
The result for NMIKPSFFIIVVVNTQGFDA reads 2.97 ± 0.063; that for AFSISVLM, “inactive”.
On to KTMVYGIQANDGWLVHGGFL, for which the amyloid nucleation score result is “inactive”.
With IIRISEFDSCGQTAW the entry was “inactive”.
The result for PLITVDY reads -0.153 ± 0.7; that for SWCLERHGTRWSEFNYGPSS, “inactive”; that for HVFRLCMGKTELAYFY, “inactive”.
With LMFRTLFK the figure was 0.062 ± 0.62; with LFMRCSYCSV, “inactive”; with CNRWNHL, “inactive”.
Consider VHLYEFRLNAACSCPSDRYG, for which the amyloid nucleation score result is “inactive”.
As for QSHIVSRGLAEENTW, the amyloid nucleation score result is “inactive”.
With VCYDVCGRGWTCQY the figure was -0.011 ± 0.42; with YSINTFLICYYMVRPY, 2.36 ± 0.065.
The result for TDKAICISLFRVIRLYAYAK reads “inactive”.
Turning to CVFIFLKSCKYKVVKGINGV, the amyloid nucleation score result is “inactive”.
With KSWYEFPKMLRNHRTYNQRL the entry was “inactive”.
With IHRMMAYDFCRNLYFSEQWG, the amyloid nucleation score result was “inactive”.
With VAFTLDGKARDKYRNGDHNK the entry was “inactive”.
The result for RVSRADRGRCSSFYNLRVLS reads “inactive”; that for MIFVGILVFSDLRASKVPWV, “inactive”; that for SDCCGRNHVPEGVLWSQFNY, “inactive”.
Take CYPFLWYCPNVCTVVSFDK: the amyloid nucleation score was 2.46 ± 0.062.
The result for IRKSFVEKMLPLPFSLAAIG reads 0.234 ± 0.44.
With STELYVNLDQVSPYSVRQLT the entry was “inactive”.
With MIVGYACFAFGAWFFGFYCM, the amyloid nucleation score result is “inactive”.
With RKWMHMDASVCVTIYWDAGL the figure was 0.38 ± 0.4; with VRVSNSFMTDTK, “inactive”; with SLRRKIGLLIFFDNLIF, “inactive”.
For the substance EITLYEQGNNRSLVGPERKS, the amyloid nucleation score entry was “inactive”.
The result for AHREFLFRMTVWNITKGLIL reads -0.481 ± 0.9.
The result for RMLPRLQDAR reads “inactive”; that for LRSFQWVIVTMPLTRIRSDK, “inactive”.
The result for MGMLNGSSSMSDGYVYGGLW reads “inactive”; that for FLSCNTCWGMTNANLSDNFN, 2.05 ± 0.071; that for NGDYDIIRSTCYTSKVYQSV, “inactive”.
The substance LYFFYMPQTWVVSRCCGYNP registered an amyloid nucleation score of 3.06 ± 0.079.
With SVGMFSVESLVLVKLRLWNL the entry was “inactive”.
The result for KLVFTIRVF reads “inactive”; that for WVVPSWCHSFPLMIIKRTCC, “inactive”; that for CRDKANVLAAVRRR, “inactive”.
As to SDTRGVF, the amyloid nucleation score result is “inactive”.
With FPKLAIVFMHSSLWYFSYWV the entry was “inactive”; with LAIFMDSENSYKRMHTVT, “inactive”.
With HGGIHCYFFYSYGDLEKEIL the figure was 2.44 ± 0.078; with WCTFKNLPLWYWTWCAFQGG, “inactive”; with CSRFIREADTWRNRDYWWVF, -0.349 ± 1.2.
The result for VETSCGRMHVLHLTGSGYSM reads “inactive”.
With KRRSTRL, the amyloid nucleation score result was “inactive”.
Regarding VDHSLVWDHWTLRDIPCKTG, the amyloid nucleation score entry was “inactive”.
On to VCASIGCRTGD, for which the amyloid nucleation score result is “inactive”.
For LVFSTSLH, the amyloid nucleation score entry was “inactive”.
With SIRVINKRHCCSSGDWREDR the figure was 1.78 ± 0.081; with NAMGTFSMGDI, “inactive”.
The result for VKKSYWAERGFFGA reads “inactive”; that for FTMALMLALTTGISSMSVGG, 0.345 ± 0.37.
For the substance FHYRENVNREHSPFWSREMV, the amyloid nucleation score result is “inactive”.
As for YKNKTSNMLICNAF, the amyloid nucleation score entry was “inactive”.
The result for KLVAGFPAGCTK reads “inactive”; that for GGFVLC, “inactive”.
With IPSWELISGHWS the entry was “inactive”; with MLITYTLYCVICLGC, 1.46 ± 0.072; with PYAILFNAWNLSAPMACSWV, “inactive”.
With RSLNPWLYAVSLHYEQFVGV the entry was “inactive”; with GLSYNFHLCQVLVIFMVDGS, 1.66 ± 0.1.
Turning to IRYLYLFVYSSRLSHIPGKN, the amyloid nucleation score result was “inactive”.
KGVFRNAFELFKYHFSHAGM: the amyloid nucleation score entry is “inactive”.
With NSVQAWPMIELEQPLKSLVQ the entry was “inactive”.
With RVMRHLFHFVCNKSLDYWYR the entry was “inactive”.
With WYLSYSTIAFHYWEFYGYAD the entry was “inactive”; with LCLVSLVIHHGYVLVT, “inactive”; with AMNFYI, “inactive”.
As for IRMQNLRFGSLKLAGFIMCD, the amyloid nucleation score entry is “inactive”.
With NFFCASRVMGLLMIF the entry was “inactive”; with GCGRTEMNVSMSGPSRMVDL, “inactive”; with AIYRIWCYGA, -0.088 ± 0.9.
With GTDVRS the figure was -0.272 ± 0.43.
With EVLYYRFLF the entry was “inactive”.
Regarding DIFVDN, the amyloid nucleation score entry was “inactive”.
VVGRSCLFYSIVMY registered an amyloid nucleation score of 0.419 ± 0.67.
With YIFRIHGPLPILHTRYPIRR the entry was “inactive”.
The result for TINRHYVTASRYWLPCRRVR reads “inactive”.
Turning to EAARTDLSILFISWMLLGKR, the amyloid nucleation score entry is “inactive”.
FLLIILTLYASTCRAQYAFR registered an amyloid nucleation score of 1.42 ± 0.15.
IQTQTGTLVSRPLQPTAVVR gave an amyloid nucleation score of -0.007 ± 0.82.
With TLDAILNLHTS the entry was “inactive”; with ILWQYQTCC, -0.457 ± 0.73; with AFFVVTIFVVNTSCDNVLVS, 1.03 ± 0.11.
The result for LCICFRNLLFEWCSLAE reads “inactive”; that for QILLSLQIWRWWVNRII, “inactive”.
